Laboratory results reported in PMC10832047.

Target: HIV-1 capsid protein (CA), wild type (HIV-1 (NL4-3 / R9 clones))

owl-monkey TRIMCyp (natural protein)
TRIMCyp restriction assay: infectivity of control pseudoviruses with pure CA^WT cores in TZM-bl cells expressing TRIMCyp, 48 h (fold reduction in infection): 10
